The test concerns the target His6-RumM (ruminococcin-A lanthionine synthetase RumM) (Ruminococcus gnavus E1) (UniProt P83674).

“His6-GFP-TEV-preRumA* (GFP fusion of the precursor peptide preRumA with Gly-1 replaced by Arg), co-expressed with RumM (from UniProt P83674 24-47)” yielded a fraction of His6-GFP-TEV-preRumA* complexed with His6-RumM that TEV protease digested (the free construct was completely digested), SDS-PAGE of 50%.

(Values after PMC6071512.)
